Test results: US20250326796A1 (SHANGHAI UNIVERSITY, published 2025)

T1: STING (mouse, UniProt Q3TBT3 1-378)
T1 sequence (looked up): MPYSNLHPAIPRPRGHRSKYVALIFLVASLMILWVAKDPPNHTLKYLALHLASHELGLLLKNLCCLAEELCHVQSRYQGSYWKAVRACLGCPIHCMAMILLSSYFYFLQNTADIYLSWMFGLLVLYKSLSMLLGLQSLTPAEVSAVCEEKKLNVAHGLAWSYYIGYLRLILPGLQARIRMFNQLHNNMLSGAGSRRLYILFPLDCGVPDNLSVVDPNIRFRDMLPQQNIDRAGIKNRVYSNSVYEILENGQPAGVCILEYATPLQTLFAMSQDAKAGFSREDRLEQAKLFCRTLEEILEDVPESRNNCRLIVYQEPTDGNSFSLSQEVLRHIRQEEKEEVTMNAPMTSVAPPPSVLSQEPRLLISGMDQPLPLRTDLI


Target: T1, STING
Assay: cell-based or functional assay

Row | Binder | IC50 for inhibiting Ifnb mRNA (RT-qPCR, RAW264.7 cells stimulated with 2'3'-cGAMP) [µM]
1 | Ac-LAWSYYIGYLRL-NH2 [SIP-1] | 8.6
2 | Ac-NFNVAHGLAWSYYIGYLRLIL-NH2 (not fully specified) [SIP-6] | 35.3
3 | NFNVAHGLAWSYYIGYLRLILPELQ (N-terminus acetylated (-Ac); C-terminus amidated (-NH2)) [SIP-7] | 18.9
4 | Ac-NFNVAHGLAWSYYIG-NH2 (not fully specified) [SIP-5] | 28.5

Next, values leading:

Row | IC50 for inhibiting Ifnb mRNA (RT-qPCR, RAW264.7 cells stimulated with 2'3'-cGAMP) [µM] | Binder
5 | 41.9 | NFNVAHGLAWSYYIGYLRLILPELQARIRTYNQHYNNL (not fully specified; N-terminus acetylated (-Ac); C-terminus amidated (-NH2)) [SIP-9]
6 | 53.2 | NFNVAHGLAWSYYIGYLRLILPELQARIRTYNQHYNNLLR (N-terminus acetylated (-Ac); C-terminus amidated (-NH2)) [SIP-11]
7 | 66.3 | NFNVAHGLAWSYYIGYLRLILPELQARIRTYNQHYNNLL (N-terminus acetylated (-Ac); C-terminus amidated (-NH2)) [SIP-10]
8 | 32.6 | NFNVAHGLAWSYYIGYLRLILPELQARIRTYN (N-terminus acetylated (-Ac); C-terminus amidated (-NH2)) [SIP-8]
